According to patent US20040248211A1, “ICAM-related protein” (priority 1992, published 2004):

T1: ICAM-R (Homo sapiens, UniProt P32942)
T1 construct: express the full length ICAM-1 and ICAM-R proteins, respectively; expressed in transfected cells; host or cells: COS cells, DEAE-dextran, plasmid pcDNA1AmpICAM-R
T1 sequence (P32942 30-547): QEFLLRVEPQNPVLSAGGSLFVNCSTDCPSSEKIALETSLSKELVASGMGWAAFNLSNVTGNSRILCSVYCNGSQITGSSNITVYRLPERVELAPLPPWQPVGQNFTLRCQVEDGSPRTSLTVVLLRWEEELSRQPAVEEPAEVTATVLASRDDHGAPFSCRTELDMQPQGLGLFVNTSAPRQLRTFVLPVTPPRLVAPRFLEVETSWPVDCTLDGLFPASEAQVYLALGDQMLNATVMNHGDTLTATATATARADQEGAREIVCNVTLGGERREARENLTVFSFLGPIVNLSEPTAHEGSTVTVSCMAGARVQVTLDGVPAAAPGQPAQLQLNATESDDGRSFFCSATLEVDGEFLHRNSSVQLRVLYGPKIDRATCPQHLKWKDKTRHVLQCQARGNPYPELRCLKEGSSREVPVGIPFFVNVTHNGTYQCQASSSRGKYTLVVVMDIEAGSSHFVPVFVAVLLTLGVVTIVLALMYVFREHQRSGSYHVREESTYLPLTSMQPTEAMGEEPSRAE


Assays:
[1] = molecular target: T2, LFA-1 transfected CHO cells (Homo sapiens, UniProt P05107+P20701); experiment: Binding of transfected CHO cells to immobilized chimeras; type: cell-based; details: only following pretreatment with PMA
T2 construct: expressed in transfected cells; host or cells: CHO cells
Description: (§1) In replicate assays, soluble ICAM-1, ICAM-R, or VCAM-1 IgG1 chimeric fusion proteins were immobilized on plastic and the ability of αd/CD18 or LFA-1 transfected CHO cells (see co-owned, concurrently filed U.S. patent application Ser. No. 08/286,889 identified as attorney docket No. 32168) to bind the immobilized ligand was determined. Transfected cells were labeled internally with calcein, washed in binding buffer (RPMI with 1% BSA), and incubated in either buffer only (with or without 10 ng/ml PMA) or buffer with anti-CD18 at 10 μg/ml. Transfected cells were added to 96-well Immulon 4 microtiter plates previously coated with soluble ICAM-1/Ig, ICAM-R/Ig or VCAM-1/Ig chimera, or bovine serum albumin (BSA) as a negative control. Wells were blocked with 1% BSA in PBS prior to addition of labeled cells. After washing the plates by immersion in PBS with 0.1% BSA for 20 minutes, total fluorescence remaining in each well was measured using a Cytofluor 2300 (Millipore, Milford, Mass.).

[2] = molecular target: T3, αd/CD18 transfected CHO cells (Homo sapiens, UniProt P05107+Q13349); experiment: Flow cytometry binding of soluble chimeras; details: chimera 5 μg/ml
T3 construct: expressed in transfected cells; host or cells: CHO cells
Description: Binding of αd/CD18-transfected cells to soluble ICAM-1/IgG, ICAM-R/IgG, or VCAM-1/IgG chimeras was determined by flow cytometry. Approximately one million αd/CD18-transfected CHO cells (grown in spinner flasks for higher expression) per measurement were suspended in 100 μl binding buffer (RPMI and 1% BSA) with or without 10 μg/ml anti-CD18 antibody. After a 20 minute incubation at room temperature, the cells were washed in binding buffer and soluble ICAM-1/IgG or ICAM-R/IgG chimera was added to a final concentration of 5 μg/ml. Binding was allowed to proceed for 30 minute at 37° C., after which the cells were washed three times and resuspended in 100 μl binding buffer containing FITC-conjugated sheep anti-human IgG1 at a 1:100 dilution. After a 30 minute incubation, samples were washed three times and suspended in 200 μl binding buffer for analysis with a Becton Dickinson FACScan.

[3] = molecular target: T3, αd/CD18 transfected CHO cells; experiment: Binding of transfected CHO cells to immobilized chimeras; type: cell-based; details: immobilized chimera
Description: as §1

T cells [4] = experiment: T-cell proliferation in response to CD3 mAb with recombinant ICAM-R; type: cell-based, human; details: in comparison to the HSA control
Description: T cell costimulation by recombinant ICAM-R and CD3 antibody in the presence of monoclonal antibodies which block ICAM-R adhesion to VLA-4 was measured (Example 21F). The monoclonal antibodies tested were specific for domain 3 of ICAM-R or the α4 subunit of VLA-4.
Both variants were tested for effects on T-cell proliferation in response to CD3 mAb. […] Similar levels of costimulation were induced by the LFA-1 binding D231H-Ig or wild-type ICAM-R/Ig chimera which binds both LFA-1 and VLA-4.

LFA-1 = LFA-1 (Homo sapiens, UniProt P05107+P20701); experiment: Integrin binding of ICAM-R/IgG variants
VLA-4 = VLA-4 (Homo sapiens, UniProt P05556+P13612); experiment: Integrin binding of ICAM-R/IgG variants
T cells [5] = experiment: IL-2 production in response to anti-CD3 and ICAM-R proteins; type: cell-based, human; details: in comparison to the HSA control
ICAM-R = molecular target: T1, ICAM-R; experiment: Blocking of biotinylated murine ICR-8.1 binding
From the text: However, antibodies containing the humanized heavy chain with the Ile2 mutation show an approximate 2-fold improvement in binding over the aforementioned antibodies. In experiments in blocking the binding of biotinylated murine ICR-8.1 to ICAM-R, the miHu/VHI/HuVK and miHuVHI/MuVK antibodies compete about 2-fold less well than the murine antibody itself.

T3 sequence (Q13349 18-1161): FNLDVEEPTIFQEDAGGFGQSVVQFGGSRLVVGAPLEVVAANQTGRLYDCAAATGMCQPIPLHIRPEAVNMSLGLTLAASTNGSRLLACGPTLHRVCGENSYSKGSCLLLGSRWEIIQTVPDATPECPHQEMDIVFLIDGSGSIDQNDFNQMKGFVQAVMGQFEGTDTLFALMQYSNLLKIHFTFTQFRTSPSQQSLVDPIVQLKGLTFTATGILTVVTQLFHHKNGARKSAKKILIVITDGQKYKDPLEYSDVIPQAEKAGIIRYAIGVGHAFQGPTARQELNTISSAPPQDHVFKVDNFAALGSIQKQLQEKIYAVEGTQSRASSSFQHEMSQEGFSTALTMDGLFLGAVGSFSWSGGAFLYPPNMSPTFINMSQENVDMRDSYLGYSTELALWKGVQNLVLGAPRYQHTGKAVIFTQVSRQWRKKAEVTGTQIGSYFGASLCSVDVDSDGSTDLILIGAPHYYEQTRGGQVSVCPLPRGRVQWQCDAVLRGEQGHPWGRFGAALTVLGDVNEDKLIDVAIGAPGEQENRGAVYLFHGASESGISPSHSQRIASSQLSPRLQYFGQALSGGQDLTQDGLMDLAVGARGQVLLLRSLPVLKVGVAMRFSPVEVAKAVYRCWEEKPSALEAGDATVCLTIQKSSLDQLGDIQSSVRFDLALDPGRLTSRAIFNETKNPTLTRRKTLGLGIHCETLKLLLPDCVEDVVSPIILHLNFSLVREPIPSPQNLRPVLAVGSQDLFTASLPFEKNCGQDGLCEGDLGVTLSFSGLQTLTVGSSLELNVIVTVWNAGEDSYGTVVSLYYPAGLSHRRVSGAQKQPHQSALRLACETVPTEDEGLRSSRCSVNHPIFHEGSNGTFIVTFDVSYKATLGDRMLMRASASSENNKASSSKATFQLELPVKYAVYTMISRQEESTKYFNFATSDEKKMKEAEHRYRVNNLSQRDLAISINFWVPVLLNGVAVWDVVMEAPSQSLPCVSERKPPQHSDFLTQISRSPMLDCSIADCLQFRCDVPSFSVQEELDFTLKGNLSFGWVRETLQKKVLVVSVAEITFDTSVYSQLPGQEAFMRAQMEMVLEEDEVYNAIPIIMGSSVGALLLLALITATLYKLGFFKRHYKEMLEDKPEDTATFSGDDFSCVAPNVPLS
T3 sequence (P05107 23-769): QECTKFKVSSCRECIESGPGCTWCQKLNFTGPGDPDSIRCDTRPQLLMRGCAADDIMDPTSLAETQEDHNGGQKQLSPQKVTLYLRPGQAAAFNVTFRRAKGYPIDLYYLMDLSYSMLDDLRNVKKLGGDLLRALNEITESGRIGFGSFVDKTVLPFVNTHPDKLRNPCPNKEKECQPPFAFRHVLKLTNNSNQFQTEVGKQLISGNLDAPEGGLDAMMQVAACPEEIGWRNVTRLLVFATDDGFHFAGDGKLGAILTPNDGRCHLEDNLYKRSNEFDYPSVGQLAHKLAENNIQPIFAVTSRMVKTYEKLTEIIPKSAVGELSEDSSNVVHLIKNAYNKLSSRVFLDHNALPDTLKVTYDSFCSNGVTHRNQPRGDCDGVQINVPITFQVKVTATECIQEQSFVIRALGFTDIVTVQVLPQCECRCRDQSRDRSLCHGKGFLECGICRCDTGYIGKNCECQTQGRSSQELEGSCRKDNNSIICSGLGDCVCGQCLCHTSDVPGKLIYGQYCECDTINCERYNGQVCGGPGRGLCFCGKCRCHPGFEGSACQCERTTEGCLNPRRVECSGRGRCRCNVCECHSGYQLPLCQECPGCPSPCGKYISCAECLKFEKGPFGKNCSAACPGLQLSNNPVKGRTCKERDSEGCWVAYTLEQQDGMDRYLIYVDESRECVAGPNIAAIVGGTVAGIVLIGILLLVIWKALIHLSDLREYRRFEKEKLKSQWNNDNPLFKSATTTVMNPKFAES
LFA-1, sequence (P20701 26-1170): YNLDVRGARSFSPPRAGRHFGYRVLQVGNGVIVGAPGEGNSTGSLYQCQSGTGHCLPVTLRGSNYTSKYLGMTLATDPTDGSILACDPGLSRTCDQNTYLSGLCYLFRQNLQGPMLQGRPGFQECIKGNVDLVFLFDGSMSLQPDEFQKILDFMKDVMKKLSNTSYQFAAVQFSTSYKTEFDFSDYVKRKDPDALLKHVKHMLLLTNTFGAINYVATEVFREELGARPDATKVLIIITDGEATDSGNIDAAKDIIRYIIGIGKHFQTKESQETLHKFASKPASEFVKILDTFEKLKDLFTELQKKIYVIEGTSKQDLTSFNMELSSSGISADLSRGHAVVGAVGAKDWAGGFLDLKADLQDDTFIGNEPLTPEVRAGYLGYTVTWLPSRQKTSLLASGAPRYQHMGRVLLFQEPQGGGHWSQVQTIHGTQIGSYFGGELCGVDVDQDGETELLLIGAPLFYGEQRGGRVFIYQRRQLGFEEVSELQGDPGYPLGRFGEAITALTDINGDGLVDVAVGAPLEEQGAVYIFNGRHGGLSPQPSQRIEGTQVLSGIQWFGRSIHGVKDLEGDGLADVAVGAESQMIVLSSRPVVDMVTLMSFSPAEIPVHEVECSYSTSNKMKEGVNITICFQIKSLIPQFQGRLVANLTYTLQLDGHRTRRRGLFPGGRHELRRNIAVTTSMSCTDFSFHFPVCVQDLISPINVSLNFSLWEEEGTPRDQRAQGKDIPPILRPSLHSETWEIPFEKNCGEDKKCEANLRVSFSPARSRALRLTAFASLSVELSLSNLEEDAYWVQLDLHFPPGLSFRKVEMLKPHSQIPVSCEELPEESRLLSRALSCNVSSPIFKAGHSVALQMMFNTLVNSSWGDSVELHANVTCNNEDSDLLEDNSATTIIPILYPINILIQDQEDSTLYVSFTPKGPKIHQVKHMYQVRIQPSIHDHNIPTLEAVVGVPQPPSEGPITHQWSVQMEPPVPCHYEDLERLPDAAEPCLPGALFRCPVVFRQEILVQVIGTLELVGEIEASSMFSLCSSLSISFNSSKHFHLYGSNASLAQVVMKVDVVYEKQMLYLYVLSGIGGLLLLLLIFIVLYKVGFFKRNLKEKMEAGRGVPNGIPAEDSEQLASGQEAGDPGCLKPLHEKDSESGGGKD
LFA-1, sequence (P05107 23-769): as the sequence (P05107 23-769) above
T2 sequence (P20701 26-1170): as the sequence (P20701 26-1170) above
T2 sequence (P05107 23-769): as the sequence (P05107 23-769) above

| Molecule | αd/CD18 transfectants binding soluble chimera [2] | LFA-1 binding (LFA-1) | VLA-4 binding (VLA-4) | T-cell proliferation in response to CD3 mAb (T cells [4]) | IL-2 production in response to CD3 mAb (T cells [5]) | also measured |
| --- | --- | --- | --- | --- | --- | --- |
| ICAM-1/IgG: soluble ICAM-1 IgG1 chimeric fusion protein (protein, left off: a dimerising Fc or GST, soluble ICAM-1 IgG1 chimeric fusion protein) QTSVSPSKVILPRGGSVLVTCSTSCDQPKLLGIETPLPKKELLLPGNNRKVYELSNVQEDSQPMCYSNCPDGQSTAKTFLTVYWTPERVELAPLPSWQPVGKNLTLRCQVEGGAPRANLTVVLLRGEKELKREPAVGEPAEVTTTVLVRRDHHGANFSCRTELDLRPQGLELFENTSAPYQLQTFVLPATPPQLVSPRVLEVDTQGTVVCSLDGLFPVSEAQVHLALGDQRLNPTVTYGNDSFSAKASVSVTAEDEGTQRLTCAVILGNQSQETLQTVTIYSFPAPNVILTKPEVSEGTEVTVKCEAHPRAKVTLNGVPAQPLGPRAQLLLKATPEDNGRSFSCSATLEVAGQLIHKNQTRELRVLYGPRLDERDCPGNWTWPENSQQTPMCQAWGNPLPELKCLKDGTFPLPIGESVTVTRDLEGTYLCRARSTQGEVTRKVTVNVLSPRYE | no binding |  |  |  |  | increase in binding of LFA-1 transfected cells [1]: 2-3 fold |
| VCAM-1/IgG: soluble VCAM-1 IgG1 chimeric fusion protein (protein, left off: a dimerising Fc or GST, soluble VCAM-1 IgG1 chimeric fusion protein) FKIETTPESRYLAQIGDSVSLTCSTTGCESPFFSWRTQIDSPLNGKVTNEGTTSTLTMNPVSFGNEHSYLCTATCESRKLEKGIQVEIYSFPKDPEIHLSGPLEAGKPITVKCSVADVYPFDRLEIDLLKGDHLMKSQEFLEDADRKSLETKSLEVTFTPVIEDIGKVLVCRAKLHIDEMDSVPTVRQAVKELQVYISPKNTVISVNPSTKLQEGGSVTMTCSSEGLPAPEIFWSKKLDNGNLQHLSGNATLTLIAMRMEDSGIYVCEGVNLIGKNRKEVELIVQEKPFTVEISPGPRIAAQIGDSVMLTCSVMGCESPSFSWRTQIDSPLSGKVRSEGTNSTLTLSPVSFENEHSYLCTVTCGHKKLEKGIQVELYSFPRDPEIEMSGGLVNGSSVTVSCKVPSVYPLDRLEIELLKGETILENIEFLEDTDMKSLENKSLEMTFIPTIEDTGKALVCQAKLHIDDMEFEPKQRQSTQTLYVNVAPRDTTVLVSPSSILEEGSSVNMTCLSQGFPAPKILWSRQLPNGELQPLSENATLTLISTKMEDSGVYLCEGINQAGRSRKEVELIIQVTPKDIKLTAFPSESVKEGDTVIISCTCGNVPETWIILKKKAETGDTVLKSIDGAYTIRKAQLKDAGVYECESKNKVGSQLRSLTLDVQGRENNKDYFSPE | no binding |  |  |  |  | increase in binding of αd/CD18 co-transfectants over BSA coated wells [3]: No detectable binding |
| miHu/VHI/HuVK: ICR-8.1 miHuVHI (Val2 to Ile2) heavy chain with humanized VK (antibody, V domains shown) VH: QIQLVQSGAEVKKPGASVKVSCKASGYTFTDCIILWVRQAPGQGLEWMGKINPYFGTTTYAQKFQGRVTITADTSTSTAYMELSSLRSEDTAVYYCARKEAYPDAMDYWGQGTLVTVSS VL: DIVMTQSPLSLPVTPGEPASISCRSSQSLVHSNGDTYLHWYLQKPGQSPQLLIYKVSNRFSGVPDRFSGSGSGTDFTLKISRVEAEDVGVYYCSQSTHVPYTFGQGTKVEIK |  |  |  |  |  | compete less well than murine ICR-8.1 in blocking binding of biotinylated murine ICR-8.1 (ICAM-R): about 2 fold |

Further lines, with some results ahead:

| αd/CD18 transfectants binding soluble chimera [2] | LFA-1 binding (LFA-1) | VLA-4 binding (VLA-4) | Molecule | T-cell proliferation in response to CD3 mAb (T cells [4]) | IL-2 production in response to CD3 mAb (T cells [5]) | also measured |
| --- | --- | --- | --- | --- | --- | --- |
|  | not LFA-1 | binds VLA-4 | E37T-Ig: ICAM-R/IgG variant which binds VLA-4 but not LFA-1 (protein, left off: a dimerising Fc or GST) QEFLLRVEPQNPVLSAGGSLFVNCSTDCPSSEKIALASSLSKELVASGMGWAAFNLSNVTGNSRILCSVYCNGSQITGSSNITVYGLPERVELAPLPPWQPVGQNFTLRCQVEGGSPRTSLTVVLLRWEEELSRQPAVEEPAEVTATVLASRDDHGAPFSCRTELDMQPQGLGLFVNTSAPRQLRTFVLPVTPPRLVAPRFLEVETSWPVDCTLDGLFPASEAQVYLALGDQMLNATVMNHGDTLTATATATARADQEGAREIVCNVTLGGERREARENLTVFSFLGPIVNLSEPTAHEGSTVTVSCMAGARVQVTLDGVPAAAPGQTAQLQLNATESDDGRSFFCSATLEVDGEFLHRNSSVQLRVLYGPKIDRATCPQHLKWKDKTRHVLQCQARGNPYPELRCLKEGSSREVPVGIPFFVNVTHNGTYQCQASSSRGKYTLVVVMDIEAFSSH | markedly inhibited T-cell proliferation | inhibited IL-2 production |  |
|  | retaining full LFA-1 binding capacity | reduced VLA-4 binding capacity | D231H-Ig: ICAM-R/IgG variant with reduced VLA-4 binding, full LFA-1 binding (protein, left off: a dimerising Fc or GST) QEFLLRVEPQNPVLSAGGSLFVNCSTDCPSSEKIALETSLSKELVASGMGWAAFNLSNVTGNSRILCSVYCNGSQITGSSNITVYGLPERVELAPLPPWQPVGQNFTLRCQVEGGSPRTSLTVVLLRWEEELSRQPAVEEPAEVTATVLASRDDHGAPFSCRTELDMQPQGLGLFVNTSAPRQLRTFVLPVTPPRLVAPRFLEVETSWPVDCTLDGLFPASEAQVYLALGHQMLNATVMNHGDTLTATATATARADQEGAREIVCNVTLGGERREARENLTVFSFLGPIVNLSEPTAHEGSTVTVSCMAGARVQVTLDGVPAAAPGQTAQLQLNATESDDGRSFFCSATLEVDGEFLHRNSSVQLRVLYGPKIDRATCPQHLKWKDKTRHVLQCQARGNPYPELRCLKEGSSREVPVGIPFFVNVTHNGTYQCQASSSRGKYTLVVVMDIEAFSSH | enhanced CD3 mAb driven T-cell proliferation | to a lesser extent |  |
